Five molecules from US20030040042A1, “Recombinant fibroblast growth factors” (published 2003) can be followed below.

In experiment [1] the target is FGF receptor on Balb/c 3T3 cells.
Experiment [2] has the same target. The source holds these as a separate data set.
The target in experiment [3] is FGF receptor on bovine adrenal cortex capillary endothelial (ACE) cells (bovine) (UniProt P12820).
Experiment [4] has as its target FGF receptor on Balb/c 3T3 cells. Description: competition with [125I]-bFGF on Balb/c 3T3 cells, 1 ug/ml heparin.
For experiment [5] the target is unchanged. Description: competition with [125I]-bFGF on Balb/c 3T3 cells, no heparin.
Experiment [6] shares this target. Description: competition with [125I]-bFGF on Balb/c 3T3 cells.
Experiment [7] deals with T1, FGF receptor on bovine adrenal cortex capillary endothelial (ACE) cells (bovine, UniProt P12820).
T1 sequence: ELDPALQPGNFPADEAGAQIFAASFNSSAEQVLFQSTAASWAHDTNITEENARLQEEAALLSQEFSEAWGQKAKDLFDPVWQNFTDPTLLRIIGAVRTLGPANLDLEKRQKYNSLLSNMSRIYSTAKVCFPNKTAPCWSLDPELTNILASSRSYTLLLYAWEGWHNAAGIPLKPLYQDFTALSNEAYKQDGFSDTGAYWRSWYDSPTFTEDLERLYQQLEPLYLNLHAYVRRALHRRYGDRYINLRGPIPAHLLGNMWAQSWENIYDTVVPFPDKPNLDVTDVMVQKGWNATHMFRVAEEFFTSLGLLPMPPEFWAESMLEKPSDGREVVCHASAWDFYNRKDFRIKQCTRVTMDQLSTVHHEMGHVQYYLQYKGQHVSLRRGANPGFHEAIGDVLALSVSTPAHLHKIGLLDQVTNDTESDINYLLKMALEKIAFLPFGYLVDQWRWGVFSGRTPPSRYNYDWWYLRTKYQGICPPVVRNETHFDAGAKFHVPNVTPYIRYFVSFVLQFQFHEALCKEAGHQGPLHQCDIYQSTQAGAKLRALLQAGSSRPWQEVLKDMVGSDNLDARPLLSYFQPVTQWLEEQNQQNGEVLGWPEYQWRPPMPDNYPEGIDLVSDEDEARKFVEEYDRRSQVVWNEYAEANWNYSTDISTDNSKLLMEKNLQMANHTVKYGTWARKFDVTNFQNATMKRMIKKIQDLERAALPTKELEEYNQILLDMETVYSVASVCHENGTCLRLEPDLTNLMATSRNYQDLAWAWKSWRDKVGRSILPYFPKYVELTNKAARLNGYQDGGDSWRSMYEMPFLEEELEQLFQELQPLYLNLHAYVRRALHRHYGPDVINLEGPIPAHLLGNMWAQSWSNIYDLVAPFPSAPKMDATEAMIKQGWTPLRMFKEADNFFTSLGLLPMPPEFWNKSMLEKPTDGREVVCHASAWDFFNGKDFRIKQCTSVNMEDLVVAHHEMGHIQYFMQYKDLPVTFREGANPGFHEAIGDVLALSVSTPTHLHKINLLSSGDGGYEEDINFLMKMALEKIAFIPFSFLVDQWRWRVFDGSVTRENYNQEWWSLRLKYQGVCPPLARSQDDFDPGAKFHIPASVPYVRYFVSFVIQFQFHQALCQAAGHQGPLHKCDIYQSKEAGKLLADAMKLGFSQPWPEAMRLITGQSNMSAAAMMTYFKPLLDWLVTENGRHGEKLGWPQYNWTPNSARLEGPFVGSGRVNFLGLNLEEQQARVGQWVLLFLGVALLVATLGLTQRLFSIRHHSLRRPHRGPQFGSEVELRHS
Description: cell-based or functional assay.

Take “bFGF(25-155) (from UniProt P09038-2) (ligand)”: in experiment [1], the 3T3 Mito., 1 ug/ml heparin (ED50 wild type / ED50 analog x 100%) (% of wild type) was 100 and the 3T3 Mito., no heparin (ED50 wild type / ED50 analog x 100%) (% of wild type) worked out at 50. For the same molecule, the inhibition of the activity of 1 ng/ml wild type bFGF in the 3T3 mitogenic assay, no heparin in experiment [2] is greater than 95%.
As to “recombinant human basic FGF (wild type) (from UniProt P09038-2) (ligand)”, in experiment [1], the 3T3 Mito. (thymidine uptake), EC50 (ED50) came out at 0.63 ng/mL; the 3T3 Mito., 1 ug/ml heparin (ED50 wild type / ED50 analog x 100%) (% of wild type) came out at 100; the 3T3 Mito., no heparin (ED50 wild type / ED50 analog x 100%) (% of wild type) is 100. Also, in experiment [3], the ACE Mito., 1 ug/ml heparin (ED50 wild type / ED50 analog x 100%) (% of wild type) came out at 100; the ACE Mito., no heparin (ED50 wild type / ED50 analog x 100%) (% of wild type) stood at 100; the ACE cell proliferation, EC50 (ED50) stood at 0.16 ng/mL. The FGF-Rc Comp. (ED50 analog / ED50 wild type FGF) in experiment [4] was 1. Also, in experiment [2], the 3T3 mitogenic assay, ED50 in the absence of bFGF(25-155) was less than 1 ng/mL; the 3T3 mitogenic assay, ED50 in the presence of 10 ng/ml bFGF(25-155) turned out to be 10 ng/mL; the 3T3 mitogenic assay, ED50 in the presence of 100 ng/ml bFGF(25-155) came to 100 ng/mL. Also, the FGF-Rc Comp. (ED50 analog / ED50 wild type FGF) in experiment [5] turned out to be 1. The same molecule returned an EC50 in experiment [6] of 10 ng/mL.

B1: bFGF-C34/78/101S (ligand)
chain: MAAGSITTLPALPEDGGSGAFPPGHFKDPKRLYSKNGGFFLRIHPDGRVDGVREKSDPHIKLQLQAEERGVVSIKGVSANRYLAMKEDGRLLASKCVTDESFFFERLESNNYNTYRSRKYTSWYVALKRTGQYKLGSKTGPGQKAILFLPMSAKS
B1: in experiment [1], the 3T3 Mito., 1 ug/ml heparin (ED50 wild type / ED50 analog x 100%) (% of wild type) turned out to be 144 and the 3T3 Mito., no heparin (ED50 wild type / ED50 analog x 100%) (% of wild type) came to 65. Moreover, the FGF-Rc Comp. (ED50 analog / ED50 wild type FGF) in experiment [4] was 0.5. Besides, in experiment [7], the “ACE Mito., 1 ug/ml heparin (ED50 wild type / ED50 analog x 100%)” value was 72 % of wild type and the “ACE Mito., no heparin (ED50 wild type / ED50 analog x 100%)” value is 2 % of wild type. The molecule further had an FGF-Rc Comp. (ED50 analog / ED50 wild type FGF) in experiment [5] of 0.45.

B2: bFGF-C78/96/101S (ligand)
chain: MAAGSITTLPALPEDGGSGAFPPGHFKDPKRLYCKNGGFFLRIHPDGRVDGVREKSDPHIKLQLQAEERGVVSIKGVSANRYLAMKEDGRLLASKSVTDESFFFERLESNNYNTYRSRKYTSWYVALKRTGQYKLGSKTGPGQKAILFLPMSAKS
Consider B2, for which, in experiment [7], the “ACE Mito., 1 ug/ml heparin (ED50 wild type / ED50 analog x 100%)” value is 125 % of wild type and the “ACE Mito., no heparin (ED50 wild type / ED50 analog x 100%)” value was 23 % of wild type.

B3: bFGF-C34/78/96/101S (ligand)
chain: MAAGSITTLPALPEDGGSGAFPPGHFKDPKRLYSKNGGFFLRIHPDGRVDGVREKSDPHIKLQLQAEERGVVSIKGVSANRYLAMKEDGRLLASKSVTDESFFFERLESNNYNTYRSRKYTSWYVALKRTGQYKLGSKTGPGQKAILFLPMSAKS
Consider B3, for which the FGF-Rc Comp. (ED50 analog / ED50 wild type FGF) in experiment [4] is 0.5; in experiment [5], 1. Besides, the “ACE Mito., 1 ug/ml heparin (ED50 wild type / ED50 analog x 100%)” value in experiment [7] was 119 % of wild type. Further, the “ACE Mito., no heparin (ED50 wild type / ED50 analog x 100%)” value in experiment [7] was 7 % of wild type.

As a reminder, the EC50 is the midpoint of the concentration-response curve.
